Each block holds one substance with its values, some of them ahead of it.
Tests used:
[1] = biological target: His6-tagged soybean chalcone synthase isozyme 1 (GmCHS-1) (Glycine max) (UniProt P24826); experiment: BLI; BLItz; His6-tagged CHS immobilised on anti-His6 sensors, GST-tagged CHIL loaded (30-150 s), wash (150-270 s); 100 mM HEPES-NaOH, pH 7.5; 1:1 binding model; apparent KD
[2] = biological target: His6-tagged soybean chalcone synthase isozyme 7 (GmCHS-7) (Glycine max) (UniProt P30081); experiment: as above
[3] = biological target: His6-tagged Hydrangea macrophylla chalcone synthase (HmCHS) (Hydrangea macrophylla) (UniProt O82144); experiment: as above
[4] = biological target: His6-tagged snapdragon CHS (Antirrhinum majus (snapdragon)) (UniProt P06515); experiment: cross-linking; His6-AmCHIL 10 µM and His6-AmCHS 5 µM with 4 mM BS3 at pH 7.5 for 5 min; SDS-PAGE and immunoblot; band of 70 kDa
[5] = biological target: His6-tagged snapdragon CHS (Antirrhinum majus (snapdragon)) (UniProt P06515)
[6] = biological target: PpCHS (GAL4 two-hybrid fusion) (Physcomitrella patens)
[7] = biological target: His6-tagged snapdragon chalcone synthase (His6-AmCHS) (Antirrhinum majus) (UniProt P06515); experiment: BLI; BLItz; His6-tagged CHS immobilised on anti-His6 sensors, GST-tagged CHIL loaded (30-150 s), wash (150-270 s); 100 mM HEPES-NaOH, pH 7.5; 1:1 binding model; apparent KD
[8] = biological target: His6-tagged morning glory chalcone synthase D (InCHS-D) (Ipomoea nil) (UniProt O22045); experiment: as above
[9] = biological target: His6-tagged CHS of ginkgo (Ginkgo biloba); experiment: BLI; BLItz; His6-tagged CHS immobilised on anti-His6 sensors, GST-tagged CHIL loaded; 100 mM HEPES-NaOH pH 7.5; 1:1 binding model; apparent KD
[10] = biological target: His6-tagged rice chalcone synthase 1 (OsCHS-1) (Oryza sativa) (UniProt Q2R3A1); experiment: BLI; BLItz; His6-tagged CHS immobilised on anti-His6 sensors, GST-tagged CHIL loaded (30-150 s), wash (150-270 s); 100 mM HEPES-NaOH, pH 7.5; 1:1 binding model; apparent KD
[11] = biological target: His6-tagged Selaginella moellendorffii chalcone synthase (SmCHS) (Selaginella moellendorffii); experiment: as above
[12] = biological target: His6-tagged Physcomitrella patens chalcone synthase (PpCHS) (Physcomitrella patens); experiment: as above
[13] = biological target: His6-tagged Ginkgo biloba chalcone synthase (GbCHS) (Ginkgo biloba); experiment: as above

Sequence of His6-tagged snapdragon chalcone synthase (His6-AmCHS) (Antirrhinum majus) (P06515 whole entry): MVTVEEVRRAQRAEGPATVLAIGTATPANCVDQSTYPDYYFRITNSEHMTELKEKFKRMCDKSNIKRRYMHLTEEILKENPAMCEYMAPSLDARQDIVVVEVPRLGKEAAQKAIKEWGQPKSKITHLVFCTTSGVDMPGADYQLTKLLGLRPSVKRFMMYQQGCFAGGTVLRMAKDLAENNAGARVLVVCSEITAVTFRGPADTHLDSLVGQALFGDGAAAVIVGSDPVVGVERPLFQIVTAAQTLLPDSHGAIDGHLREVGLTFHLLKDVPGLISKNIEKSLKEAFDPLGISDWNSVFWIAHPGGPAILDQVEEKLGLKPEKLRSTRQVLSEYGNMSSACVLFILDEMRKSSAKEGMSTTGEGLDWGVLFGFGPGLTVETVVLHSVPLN
Sequence of His6-tagged snapdragon CHS (Antirrhinum majus (snapdragon)) (P06515 whole entry, the tested form may be a part): as the sequence (P06515 whole entry) above
Sequence of His6-tagged soybean chalcone synthase isozyme 1 (GmCHS-1) (Glycine max) (P24826 whole entry): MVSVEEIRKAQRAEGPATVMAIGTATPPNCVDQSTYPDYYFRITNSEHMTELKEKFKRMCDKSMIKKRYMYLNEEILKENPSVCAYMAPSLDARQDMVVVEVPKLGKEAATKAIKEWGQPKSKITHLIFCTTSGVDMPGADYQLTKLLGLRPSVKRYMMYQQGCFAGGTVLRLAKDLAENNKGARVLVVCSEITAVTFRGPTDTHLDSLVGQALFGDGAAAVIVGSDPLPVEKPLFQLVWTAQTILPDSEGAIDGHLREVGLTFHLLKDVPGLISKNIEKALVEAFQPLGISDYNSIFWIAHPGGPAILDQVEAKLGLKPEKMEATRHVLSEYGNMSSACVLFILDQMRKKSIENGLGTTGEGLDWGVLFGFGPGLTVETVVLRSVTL
Sequence of His6-tagged Physcomitrella patens chalcone synthase (PpCHS) (Physcomitrella patens) (Q2VAZ3 entry or part of it): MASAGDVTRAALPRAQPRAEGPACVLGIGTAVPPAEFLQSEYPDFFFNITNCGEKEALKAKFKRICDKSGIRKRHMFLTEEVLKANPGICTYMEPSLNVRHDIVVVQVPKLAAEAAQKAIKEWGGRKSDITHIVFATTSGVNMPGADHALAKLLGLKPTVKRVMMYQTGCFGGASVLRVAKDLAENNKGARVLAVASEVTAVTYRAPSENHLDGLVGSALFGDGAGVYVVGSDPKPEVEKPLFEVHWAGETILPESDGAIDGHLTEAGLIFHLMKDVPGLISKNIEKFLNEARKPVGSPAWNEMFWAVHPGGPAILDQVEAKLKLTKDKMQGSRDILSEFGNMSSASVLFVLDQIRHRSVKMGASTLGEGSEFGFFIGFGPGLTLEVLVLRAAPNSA
Sequence of His6-tagged Hydrangea macrophylla chalcone synthase (HmCHS) (Hydrangea macrophylla) (O82144 whole entry): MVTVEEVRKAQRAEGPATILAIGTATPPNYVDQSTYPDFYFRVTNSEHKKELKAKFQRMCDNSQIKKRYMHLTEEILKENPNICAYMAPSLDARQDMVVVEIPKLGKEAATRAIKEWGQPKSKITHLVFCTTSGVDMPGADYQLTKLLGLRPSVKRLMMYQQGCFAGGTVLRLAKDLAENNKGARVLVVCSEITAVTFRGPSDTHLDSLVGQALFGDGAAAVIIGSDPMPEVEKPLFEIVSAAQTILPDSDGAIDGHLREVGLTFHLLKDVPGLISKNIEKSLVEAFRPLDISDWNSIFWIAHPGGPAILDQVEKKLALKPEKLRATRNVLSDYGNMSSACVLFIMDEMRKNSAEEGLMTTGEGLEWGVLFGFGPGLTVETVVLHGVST
Sequence of His6-tagged soybean chalcone synthase isozyme 7 (GmCHS-7) (Glycine max) (P30081 whole entry): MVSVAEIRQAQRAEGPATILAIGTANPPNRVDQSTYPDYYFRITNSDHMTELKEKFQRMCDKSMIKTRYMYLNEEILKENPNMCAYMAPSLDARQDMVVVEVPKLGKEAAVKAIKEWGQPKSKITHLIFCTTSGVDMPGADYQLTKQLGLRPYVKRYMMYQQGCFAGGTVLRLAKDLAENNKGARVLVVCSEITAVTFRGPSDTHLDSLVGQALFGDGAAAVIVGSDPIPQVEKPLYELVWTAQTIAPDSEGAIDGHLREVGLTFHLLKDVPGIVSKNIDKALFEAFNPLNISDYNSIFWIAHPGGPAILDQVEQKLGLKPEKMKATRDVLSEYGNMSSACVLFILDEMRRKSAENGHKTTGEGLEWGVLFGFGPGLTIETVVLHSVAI
Sequence of His6-tagged morning glory chalcone synthase D (InCHS-D) (Ipomoea nil) (O22045 whole entry): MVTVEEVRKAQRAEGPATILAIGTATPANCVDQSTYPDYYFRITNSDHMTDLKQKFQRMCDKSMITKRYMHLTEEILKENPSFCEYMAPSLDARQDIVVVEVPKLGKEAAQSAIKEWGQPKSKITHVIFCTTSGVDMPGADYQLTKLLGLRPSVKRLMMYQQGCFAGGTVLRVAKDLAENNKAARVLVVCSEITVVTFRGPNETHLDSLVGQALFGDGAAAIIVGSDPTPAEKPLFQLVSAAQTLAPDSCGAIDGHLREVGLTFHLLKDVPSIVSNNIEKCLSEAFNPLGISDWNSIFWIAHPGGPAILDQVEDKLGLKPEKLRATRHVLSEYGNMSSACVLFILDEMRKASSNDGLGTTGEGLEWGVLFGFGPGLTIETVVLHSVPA
Sequence of His6-tagged rice chalcone synthase 1 (OsCHS-1) (Oryza sativa) (Q2R3A1 whole entry): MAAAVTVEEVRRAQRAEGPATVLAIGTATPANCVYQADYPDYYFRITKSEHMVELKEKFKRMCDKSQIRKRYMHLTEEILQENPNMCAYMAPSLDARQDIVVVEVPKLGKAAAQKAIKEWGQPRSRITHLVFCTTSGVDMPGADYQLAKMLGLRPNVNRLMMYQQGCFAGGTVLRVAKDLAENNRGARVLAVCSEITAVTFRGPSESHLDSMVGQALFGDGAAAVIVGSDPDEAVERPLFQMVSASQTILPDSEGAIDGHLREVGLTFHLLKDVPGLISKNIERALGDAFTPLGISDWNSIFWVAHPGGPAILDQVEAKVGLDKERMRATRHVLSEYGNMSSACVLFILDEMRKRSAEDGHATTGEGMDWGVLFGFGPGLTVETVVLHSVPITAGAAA

Substance: glutathione S-transferase-tagged Hydrangea macrophylla chalcone isomerase-like protein (HmCHIL) (natural protein)
Kd [3]: 24.1 nM
koff [3]: 0.00277 s⁻¹
kon [3]: 115000 M⁻¹ s⁻¹

Substance: His6-tagged snapdragon CHIL (natural protein)
stoichiometry N (CHIL monomer per CHS monomer) [4]: 1
E value (chalconoid excess over CTAL) of the reaction catalysed by 0.1 µM AmCHS in the presence of 1 µM CHIL (+18% without CHIL) [5]: 80%
amount of THC and naringenin (chalconoids) formed by 0.1 µM AmCHS with 1.0 µM AmCHIL against without, with a substantial decrease in CTAL formation [5]: 1.7 fold

Substance: glutathione S-transferase-tagged CHIL of ginkgo (natural protein)
Kd [9]: 126 nM

Substance: glutathione S-transferase-tagged Physcomitrella patens chalcone isomerase-like protein A (PpCHIL-A) (natural protein)
Kd [12]: 2.69 nM
koff [12]: 0.000319 s⁻¹
kon [12]: 118000 M⁻¹ s⁻¹

Other lines, results leading:

Kd [1]: 7.46 nM
koff [1]: 0.000381 s⁻¹
kon [1]: 51000 M⁻¹ s⁻¹
Kd [2]: 19.3 nM
koff [2]: 0.00113 s⁻¹
kon [2]: 58300 M⁻¹ s⁻¹
Substance: glutathione S-transferase-tagged soybean chalcone isomerase-like protein (GmCHIL) (natural protein)

E value (chalconoid excess over CTAL) of the reaction catalysed by 0.1 µM PpCHS in the presence of 1 µM CHIL (−67% without CHIL); purified recombinant proteins [6]: 90%
Substance: PpCHIL (GAL4 two-hybrid fusion) (natural protein)

Kd [7]: 62.6 nM
koff [7]: 0.00183 s⁻¹
kon [7]: 29300 M⁻¹ s⁻¹
Substance: glutathione S-transferase-tagged snapdragon chalcone isomerase-like protein (AmCHIL) (natural protein)

Kd [8]: 1.05 nM
koff [8]: 0.000206 s⁻¹
kon [8]: 196000 M⁻¹ s⁻¹
Substance: glutathione S-transferase-tagged morning glory chalcone isomerase-like protein (InCHIL) (natural protein)

Kd [10]: 64.4 nM
koff [10]: 0.000672 s⁻¹
kon [10]: 10400 M⁻¹ s⁻¹
Substance: glutathione S-transferase-tagged rice chalcone isomerase-like protein A (OsCHIL-A) (natural protein)

Kd [11]: 56.6 nM
koff [11]: 0.000674 s⁻¹
kon [11]: 11900 M⁻¹ s⁻¹
Substance: glutathione S-transferase-tagged Selaginella moellendorffii chalcone isomerase-like protein (SmCHIL) (natural protein)

koff [13]: 0.000154 s⁻¹
kon [13]: 20200 M⁻¹ s⁻¹
Substance: glutathione S-transferase-tagged Ginkgo biloba chalcone isomerase-like protein (GbCHIL) (natural protein)
